Laboratory results: publication PMC3460896, “A Common Origin for the Bacterial Toxin-Antitoxin Systems parD and ccd, Suggested by Analyses of Toxin/Target and Toxin/Antitoxin Interactions” (PLoS ONE, 2012)
Where “and” joins values, the source holds several entries; their conditions need not be identical. Equal entries are not always repeated.

B1: CcdA antitoxin (natural protein, plasmid F, UniProt P62552 1-72, looked up)
chain: MKQRITVTVDSDSYQLLKAYDVNISGLVSTTMQNEARRLRAERWKAENQEGMAEVARFIEMNGSFADENRDW
notes: source: E. coli strain SG22623 carrying plasmid pKK223CcdA, purified as described previously [35]
B2: His6-Kis antitoxin (natural protein, plasmid R1, UniProt P13975 1-85, looked up)
chain: MHTTRLKRVGGSVMLTVPPALLNALSLGTDNEVGMVIDNGRLIVEPYRRPQYSLAELLAQCDPNAEISAEEREWLDAPATGQEEI
notes: also called HisKis; source: purified as described [12]

What was measured:
Kid toxin (plasmid R1) = Kid toxin (plasmid R1) (UniProt P13976); assay: native MS; Kid:CcdA ratios 2:1, 1:1 and 1:2; 100 mM ammonium acetate pH 6.7; lowest protein concentration 10 µM
Kid toxin (plasmid R1), sequence (P13976 24-133): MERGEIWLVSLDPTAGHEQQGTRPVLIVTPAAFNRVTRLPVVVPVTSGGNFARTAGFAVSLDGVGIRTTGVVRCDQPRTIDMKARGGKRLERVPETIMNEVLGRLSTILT

CcdB toxin [1] = molecular target: T1, CcdB toxin (plasmid F, UniProt P62554 1-101); assay: native MS; CcdB:CcdA molar ratios 2:1 and 1:1 (CcdB equal to or in excess of CcdA); 100 mM ammonium acetate pH 6.7; lowest protein concentration 10 µM; conditions: both partners purified
T1 construct: source: E. coli strain B462 carrying plasmid pULB2250, purified (Sephacryl S-200, MonoQ, CM-Sepharose)
T1 sequence (P62554 whole entry): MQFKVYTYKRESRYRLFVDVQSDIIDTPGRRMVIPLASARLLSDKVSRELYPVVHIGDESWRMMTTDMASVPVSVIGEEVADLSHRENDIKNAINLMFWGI

CcdB toxin [2] = molecular target: T1, CcdB toxin; assay: native MS; CcdB:CcdA molar ratios 1:2 and 1:4 (CcdA in excess); 100 mM ammonium acetate pH 6.7; lowest protein concentration 10 µM; conditions: both partners purified
CcdB toxin [3] = molecular target: T1, CcdB toxin; assay: native MS; CcdB:His6Kis molar ratios 2:1, 1:1 and 1:2 (Fig. 6A-C); 100 mM ammonium acetate pH 6.7; lowest protein concentration 10 µM; conditions: both partners purified
[4] = molecular target: the molecule itself; assay: as above
CcdB toxin [5] = molecular target: T1, CcdB toxin; assay: native MS; CcdB:His6Kis molar ratio 1:4 (Fig. 6D); 100 mM ammonium acetate pH 6.7; lowest protein concentration 5 µM; conditions: both partners purified

| Binder | stoichiometry N (CcdA per Kid (1:2)) (Kid toxin (plasmid R1)) | stoichiometry N (CcdA per Kid (2:2)) (Kid toxin (plasmid R1)) | stoichiometry N (CcdB toxin [1]) | stoichiometry N (CcdB toxin [2]) | stoichiometry N (CcdB toxin [3]) | stoichiometry N [4] | stoichiometry N (CcdB toxin [5]) |
| --- | --- | --- | --- | --- | --- | --- | --- |
| B1 | 0.5 | 1 | 0.5 CcdA per CcdB (1:2) and 0.5 CcdA per CcdB (2:4) | 1 CcdA per CcdB (2:2) | – | – | – |
| B2 | – | – | – | – | 1 His6Kis per CcdB (2:2) | 2 | 0.5 His6Kis per CcdB (1:2) |
